From the supplement of paper PMC11316812
± gives the standard deviation of the averaged measurements.

Key:
[1] = tested on: MCF7; test: percentage of EdU-negative (G0-arrested) nuclei per well, 72 h; higher = more G0 arrest; conditions: reference: sequence is the full UniProt precursor, the tested protein was the secreted form or ectodomain
[2] = tested on: hTERT-HMEC; test: as above; conditions: reference: sequence is the full UniProt precursor, the tested protein was the secreted form or ectodomain
[3] = protein concentration 0.0055 µM
[4] = protein concentration 0.0225 µM
[5] = protein concentration 0.01175 µM
[6] = protein concentration 0.1175 µM
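Further: secreted proteins added to cultured cells, EdU pulse at the end, nuclei found by Hoechst imaging, EdU status from nuclear versus surrounding ring intensity ratio, PBS as neutral control.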

Row | Sequence | percentage of EdU-negative [1, 4] | percentage of EdU-negative ([1]; protein concentration 0.225 µM) | percentage of EdU-negative [2, 4] | percentage of EdU-negative ([2]; protein concentration 0.225 µM) | further results
1 | MRLLAKIICLMLWAICVAEDCNELPPRRNTEILTGSWSDQTYPEGTQAIYKCRPGYRSLGNVIMVCRKGEWVALNPLRKCQKRPCGHPGDTPFGTFTLTGGNVFEYGVKAVYTCNEGYQLLGEINYRECDTDGWTNDIPICEVVKCLPVTAPENGKIVSSAMEPDREYHFGQAVRFVCNSGYKIEGDEEMHCSDDGFWSKEKPKCVEISCKSPDVINGSPISQKIIYKENERFQYKCNMGYEYSERGDAVCTESGWRPLPSCEEKSCDNPYIPNGDYSPLRIKHRTGDEITYQCRNGFYPATRGNTAKCTSTGWIPAPRCTLKPCDYPDIKHGGLYHENMRRPYFPVAVGKYYSYYCDEHFETPSGSYWDHIHCTQDGWSPAVPCLRKCYFPYLENGYNQNYGRKFVQGKSIDVACHPGYALPKAQTTVTCMENGWSPTPRCIRVKTCSKSSIDIENGFISESQYTYALKEKAKYQCKLGYVTADGETSGSITCGKDGWSAQPTCIKSCDIPVFMNARTKNDFTWFKLNDTLDYECHDGYESNTGSTTGSIVCGYNGWSDLPICYERECELPKIDVHLVPDRKKDQYKVGEVLKFSCKPGFTIVGPNSVQCYHFGLSPDLPICKEQVQSCGPPPELLNGNVKEKTKEEYGHSEVVEYYCNPRFLMKGPNKIQCVDGEWTTLPVCIVEESTCGDIPELEHGWAQLSSPPYYYGDSVEFNCSESFTMIGHRSITCIHGVWTQLPQCVAIDKLKKCKSSNLIILEEHLKNKKEFDHNSNIRYRCRGKEGWIHTVCINGRWDPEVNCSMAQIQLCPPPPQIPNSHNMTTTLNYRDGEKVSVLCQENYLIQEGEEITCKDGRWQSIPLCVEKIPCSQPPQIEHGTINSSRSSQESYAHGTKLSYTCEGGFRISEENETTCYMGKWSSPPQCEGLPCKSPPEISHGVVAHMSDSYQYGEEVTYKCFEGFGIDGPAIAKCLGEKWSHPPSCIKTDCLSLPSFENAIPMGEKKDVYKAGEQVTYTCATYYKMDGASNVTCINSRWTGRPTCRDTSCVNPPTVQNAYIVSRQMSKYPSGERVRYQCRSPYEMFGDEEVMCLNGNWTEPPQCKDSTGKCGPPPPIDNGDITSFPLSVYAPASSVEYQCQNLYQLEGNKRITCRNGQWSEPPKCLHPCVISREIMENYNIALRWTAKQKLYSRTGESVEFVCKRGYRLSSRSHTLRTTCWDGKLEYPTCAKR | – | – | – | – | percentage of EdU-negative [1, 3]: 25.1 ± 0.8%; percentage of EdU-negative ([1]; protein concentration 0.055 µM): 25.5 ± 2.4%; percentage of EdU-negative [2, 3]: 5.14 ± 0.38%; percentage of EdU-negative ([2]; protein concentration 0.055 µM): 7.65 ± 0.92%
2 | MRLLCGLWLWLSLLKVLQAQTPTPLPLPPPMQSFQGNQFQGEWFVLGLAGNSFRPEHRALLNAFTATFELSDDGRFEVWNAMTRGQHCDTWSYVLIPAAQPGQFTVDHGVEPGADREETRVVDSDYTQFALMLSRRHTSRLAVLRISLLGRSWLLPPGTLDQFICLGRAQGLSDDNIVFPDVTGWSPQASVC [Q6JVE5] | 28.3 ± 4% | 32.23 ± 0.31% | 4.84 ± 0.32% | 5.1 ± 0.82% | –
3 | MRLLPLAPGRLRRGSPRHLPSCSPALLLLVLGGCLGVFGVAAGTRRPNVVLLLTDDQDEVLGGMTPLKKTKALIGEMGMTFSSAYVPSALCCPSRASILTGKYPHNHHVVNNTLEGNCSSKSWQKIQEPNTFPAILRSMCGYQTFFAGKYLNEYGAPDAGGLEHVPLGWSYWYALEKNSKYYNYTLSINGKARKHGENYSVDYLTDVLANVSLDFLDYKSNFEPFFMMIATPAPHSPWTAAPQYQKAFQNVFAPRNKNFNIHGTNKHWLIRQAKTPMTNSSIQFLDNAFRKRWQTLLSVDDLVEKLVKRLEFTGELNNTYIFYTSDNGYHTGQFSLPIDKRQLYEFDIKVPLLVRGPGIKPNQTSKMLVANIDLGPTILDIAGYDLNKTQMDGMSLLPILRGASNLTWRSDVLVEYQGEGRNVTDPTCPSLSPGVSQCFPDCVCEDAYNNTYACVRTMSALWNLQYCEFDDQEVFVEVYNLTADPDQITNIAKTIDPELLGKMNYRLMMLQSCSGPTCRTPGVFDPGYRFDPRLMFSNRGSVRTRRFSKHLL | – | – | – | – | percentage of EdU-negative [1, 5]: 25.19 ± 0.18%; percentage of EdU-negative [1, 6]: 25.1 ± 1.3%; percentage of EdU-negative [2, 5]: 5.009 ± 0.019%; percentage of EdU-negative [2, 6]: 5.44 ± 1.4%
4 | MRLLPLLRTVLWAAFLGSPLRGGSSLRHVVYWNSSNPRLLRGDAVVELGLNDYLDIVCPHYEGPGPPEGPETFALYMVDWPGYESCQAEGPRAYKRWVCSLPFGHVQFSEKIQRFTPFSLGFEFLPGETYYYISVPTPESSGQCLRLQVSVCCKERKSESAHPVGSPGESGTSGWRGGDTPSPLCLLLLLLLLILRLLRIL | 27.2 ± 2.5% | 25.7 ± 0.36% | 5.7 ± 0.081% | 8.57 ± 0.56% | –
5 | MRLLQLLFRASPATLLLVLCLQLGANKAQDNTRKIIIKNFDIPKSVRPNDEVTAVLAVQTELKECMVVKTYLISSIPLQGAFNYKYTACLCDDNPKTFYWDFYTNRTVQIAAVVDVIRELGICPDDAAVIPIKNNRFYTIEILKVE | 25.1 ± 2.6% | 25.5 ± 0.54% | 4.779 ± 0.024% | 5.95 ± 1.6% | –
